Data taken from patent publication US20130110249A1 (UNIVERSITY OF ROCHESTER, published 2013).

T1: native Gmd of S. aureus Xen29 (Staphylococcus aureus, UniProt P0C5Z8 776-1255, limits assumed)
T1 construct: domain: glucosaminidase (Gmd) subunit of autolysin
T1 sequence (looked up): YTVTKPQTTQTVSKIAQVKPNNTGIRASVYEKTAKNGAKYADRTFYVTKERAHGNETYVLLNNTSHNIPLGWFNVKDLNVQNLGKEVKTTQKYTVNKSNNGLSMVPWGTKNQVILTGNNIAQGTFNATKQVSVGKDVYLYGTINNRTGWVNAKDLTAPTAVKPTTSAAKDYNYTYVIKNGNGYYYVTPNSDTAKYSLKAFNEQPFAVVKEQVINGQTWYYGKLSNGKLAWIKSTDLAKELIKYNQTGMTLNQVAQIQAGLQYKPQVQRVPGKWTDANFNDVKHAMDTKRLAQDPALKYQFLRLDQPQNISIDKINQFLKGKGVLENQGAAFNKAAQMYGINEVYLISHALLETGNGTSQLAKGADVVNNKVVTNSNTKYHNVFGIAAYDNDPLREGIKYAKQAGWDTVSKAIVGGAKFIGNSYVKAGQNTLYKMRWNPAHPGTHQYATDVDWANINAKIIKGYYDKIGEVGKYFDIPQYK

T2: recombinant His-glucosaminidase (His-Gmd) of Staphylococcus aureus autolysin (Staphylococcus aureus, UniProt A7X0T9 775-1254)
T2 construct: also called Gmd-His; recombinant Gmd
T2 sequence: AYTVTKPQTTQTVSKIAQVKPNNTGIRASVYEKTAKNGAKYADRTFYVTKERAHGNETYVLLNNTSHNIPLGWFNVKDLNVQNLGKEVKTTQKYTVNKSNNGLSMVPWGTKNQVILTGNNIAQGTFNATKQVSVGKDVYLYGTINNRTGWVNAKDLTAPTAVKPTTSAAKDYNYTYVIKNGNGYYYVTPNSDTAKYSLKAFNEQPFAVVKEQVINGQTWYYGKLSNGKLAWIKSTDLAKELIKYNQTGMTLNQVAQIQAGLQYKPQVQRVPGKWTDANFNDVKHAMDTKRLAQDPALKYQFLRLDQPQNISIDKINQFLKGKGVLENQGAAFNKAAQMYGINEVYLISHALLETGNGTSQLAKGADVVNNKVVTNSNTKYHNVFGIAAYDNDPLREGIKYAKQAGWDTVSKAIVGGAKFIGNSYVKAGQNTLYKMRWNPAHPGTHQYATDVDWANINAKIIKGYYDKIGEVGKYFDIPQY

B1: anti-Gmd monoclonal antibody 1C11 (antibody, V domains shown)
VH: QIQLVQSGPELKKPGETVKISCKASGYTFTTYGMSWVNQAPGKGLKWMGWINTYSGVPTYADDFKGRFVFSLETSASTAYLQINNLKNEDTATYFCAREEYSSGYAAWFPYWGQGTLVTVSA
VL: DIVLTQSPATLSVTPGDSVSLSCRASQSISNNLHWYQQKSHESPRLLIEYASRSISGIPSRFSGGGSGTDFTLSINSVESEDFGLYFCQQSNSWPLTFGAGTKLELK
notes: also called mAb 1C11; mouse 1C11
B2: anti-Gmd monoclonal antibody 3A8 (antibody, V domains shown)
VH: EVQLQESGGGLVQPGGSMKLSCAASGFTFSDAWMDWVRQSPEKGLEWVAEIKDKTNNHATYYAESVKGRFTISRDVSKSRVFLQMNSLRPEDTGIYYCTSGPYFDYWGQGTTLTVSS
VL: DIVMTQSHKFMSTSVGDRVSITCKASQDVSTAVAWYQQKPGQSPKLLIYWTSTRHTGVPDRFTGSGSGTDFTLTISSVQAKDLALYYCQQHYTTPYTFGGGTKLEIK
notes: also called mAb 3A8; hybridoma 3A8

What was measured:
[1] = molecular target: T1, native Gmd of S. aureus Xen29; experiment: estimate from the dose dependence of the Xen29 growth (light scattering) assay, assuming about ten times the Kd is required
[2] = molecular target: T2, recombinant His-glucosaminidase …; experiment: method not stated; hybridomas screened by ELISA and western dot-blot

| Binder | Kd [1] [nM] | Kd [2] [nM] |
| --- | --- | --- |
| B1 | ~1 | ≤ 1 |
| B2 | ~1 | ≤ 1 |
